According to patent US20110223155A1:

Experiments:
[1] = molecular target: full-length human Notch3 receptor expressed on cells (human) (UniProt Q9UM47); experiment: cell-based or functional assay
[2] = molecular target: human Notch1-LD/Fc (LIN/dimerization domain fused to Fc region at the carboxyl terminus) (human) (UniProt P46531); experiment: ELISA on coated Notch1-LD/Fc
[3] = molecular target: Notch3-LD/Fc fusion protein (Notch3 LIN12/dimerization domain fused to human gamma 1 Fc) (human) (UniProt Q9UM47); experiment: ELISA on coated Notch3-LD/Fc

UniProt P46531, sequence (P46531 1440-1735 limits assumed, form in doubt): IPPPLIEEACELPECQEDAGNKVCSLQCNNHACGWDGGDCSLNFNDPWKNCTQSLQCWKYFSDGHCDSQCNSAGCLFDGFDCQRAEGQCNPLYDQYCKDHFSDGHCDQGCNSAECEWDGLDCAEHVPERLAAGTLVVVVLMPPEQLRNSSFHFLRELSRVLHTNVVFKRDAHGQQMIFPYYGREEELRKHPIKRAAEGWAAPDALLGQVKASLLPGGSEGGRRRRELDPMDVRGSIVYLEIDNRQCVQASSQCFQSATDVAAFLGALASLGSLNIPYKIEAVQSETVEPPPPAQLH

## human Jagged2 expressed on 293 cells (Jagged2/293F) (from UniProt Q9Y219 24-1238) (ligand)
[1]
  luciferase activity (CBF1-Luc reporter) of NC85 cells cocultured with Jagged2/293F, against coculture with PCDNA 3.1/293T: 2 to 4 fold

## human Jagged1 expressed on 293T cells (Jagged1/293T) (from UniProt P78504 34-1218) (ligand)
[1]
  luciferase activity (CBF1-Luc reporter) of NC85 cells cocultured with Jagged1/293T, against coculture with PCDNA 3.1/293T: 2 to 4 fold

## Control IgG1 (irrelevant IgG1 monoclonal antibody)
[2]
  ELISA OD reading (mean): 0.066 OD 450 nm
[3]
  ELISA OD reading (mean): 0.064 OD 450 nm
